Article PMC8977021, “bZIP transcription factors PcYap1 and PcRsmA link oxidative stress response to secondary metabolism and development in Penicillium chrysogenum”

T1: PcAtf21 del319-319 (Penicillium chrysogenum Wis54-1255 (P. rubens Wis54-1255)) (UniProt B6HLX5)
T1 sequence: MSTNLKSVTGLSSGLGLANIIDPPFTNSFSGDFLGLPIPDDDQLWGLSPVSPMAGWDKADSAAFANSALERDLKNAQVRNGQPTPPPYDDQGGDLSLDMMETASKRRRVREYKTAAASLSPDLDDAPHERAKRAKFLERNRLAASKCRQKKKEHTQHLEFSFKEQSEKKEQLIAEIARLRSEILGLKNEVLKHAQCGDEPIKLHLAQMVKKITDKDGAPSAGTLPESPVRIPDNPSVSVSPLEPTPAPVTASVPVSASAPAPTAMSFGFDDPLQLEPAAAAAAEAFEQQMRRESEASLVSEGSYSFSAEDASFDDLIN

T2: PcAtf21 (Penicillium chrysogenum Wis54-1255 (P. …, UniProt B6HLX5 1-318, del319-319))
T2 sequence: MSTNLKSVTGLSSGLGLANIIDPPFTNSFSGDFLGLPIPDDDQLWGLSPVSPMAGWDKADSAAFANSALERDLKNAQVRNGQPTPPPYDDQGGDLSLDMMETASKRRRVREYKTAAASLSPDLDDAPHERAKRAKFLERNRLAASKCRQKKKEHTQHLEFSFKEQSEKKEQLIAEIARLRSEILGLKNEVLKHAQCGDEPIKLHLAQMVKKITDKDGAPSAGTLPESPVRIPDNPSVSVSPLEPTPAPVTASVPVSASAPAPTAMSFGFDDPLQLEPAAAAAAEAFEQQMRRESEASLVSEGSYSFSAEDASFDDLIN


Legend:
[1] = molecular target: T1, PcAtf21 del319-319 (Penicillium chrysogenum Wis54-1255 (P. rubens Wis54-1255)); assay: EMSA; details: LightShift binding buffer 1X, about 10% glycerol, 5 mM MgCl2, 20 fmol biotin probe, 10 ug protein, 20 uL, room temperature 20 min; 5% native PAGE in 0.5X TBE …
PcAtf21 = molecular target: T2, PcAtf21; assay: EMSA; LightShift binding buffer 1X, about 10% glycerol, 5 mM MgCl2, 20 fmol biotin probe, 10 ug protein, 20 uL, room temperature 20 min; 5% native PAGE in 0.5X TBE; pH and salt not given; details: protein: recombinant; tags: C-terminal c-myc-6xHis; chain copies: 2; label: 3' biotin; blunt

Molecule | binding [1] | binding result (PcAtf21)
TGTTTATGCTGAGACAACCTGGAGACATTATACGCTTGCAGCCCAGATGCTTACTGGATGGGGCCGCTGGAGCCAGTGTAAAATTAGTAACCGTATCTCGAAGTCGGAGGGTCTTTGGTGGTCTGAGATTTCAGTCGGTCCGCACCGTGGCATTTGCAGACGGTGCGATCAGGCCAATCGTTGATGCTCGG (double strand) [probe 5] | no binding | 
AACATCGCCGTCGTTGAGTGCACGTTGCCTACTCTCTCGTGGCTTGGCTGGGCCCACGAGCCCGATTGACTCGACGGTGTTACTTGGGTATCTATGGCCCCGTTTTCTGGCACGGTAATGATAAGTACTTACTAGTCTTCGAGCGGGGGAGTGTTGCTCTGCCCGAGCATCAACGATTGGCCTGA (double strand) [probe 4] | no binding | 
NorR4 (dsDNA) DNA 1: TTTCAACATTTCTTGAGTACTTTTCTAAGCCGTGACATAATGAACGGATCA DNA 2: TGATCCGTTCATTATGTCACGGCTTAGAAAAGTACTCAAGAAATGTTGAAA |  | binds
penDE-CRE123 (dsDNA) DNA 1: AGGTCCTGCATTAGCGTACGCCCCAGGTTTAGATCAAAGTTACGTAATTTATATGTA DNA 2: TACATATAAATTACGTAACTTTGATCTAAACCTGGGGCGTACGCTAATGCAGGACCT |  | no binding
